# Reference: PMC4467669, “Targeted inhibition of the Shroom3–Rho kinase protein–protein interaction circumvents Nogo66 to promote axon outgrowth” (BMC Neuroscience, 2015)
# Residue numbers refer to the chain shown, from its start.
# B1: Biotinylated HisSUMO-R2C1 (mouse ROCK II aa 698–957) (domain or fragment, UniProt P70336 698-957, looked up)
# chain: QQSLEQEEAEHKTTKARLADKNKIYESIEEAKSEAMKEMEKKLLEERSLKQKVENLLLEAEKRCSILDCDLKQSQQKLNELLKQKDVLNEDVRNLTLKIEQETQKRCLMQNDLKMQTQQVNTLKMSEKQIKQENNHLMEMKMNLEKQNTELRKERQDADGQMKELQDQLEAEQYFSTLYKTQVRELKEENEEKTKLCKELQQKKQDLQDERDSLAAQLEITLTKADSEQLARSIAEEQYSDLEKEKIMKELEIKEMMARH
# modifications: biotin (NHS-PEO4-biotin; on average four biotin molecules per 1 mol of protein)
# notes: No removal of the His-SUMO tag is described; also called Biotin-R2C1; biotinylated R2-C1; source: E. coli, purified (HisPur Ni-NTA), biotinylated with NHS-PEO4-biotin
# B2: HisSUMO-R2C1 (mouse ROCK II aa 698–957), unlabeled (domain or fragment, UniProt P70336 698-957, looked up)
# chain: B1 chain
# notes: also called Unlabeled R2-C1; unlabeled R2C1; source: E. coli, purified (HisPur Ni-NTA)
# Tests used:
# [1] = biological target: T1, Shroom3 (Mus musculus, UniProt Q9QXN0); experiment: ELISA of purified SD2 / biotin-R2-C1 interaction; wash-out irreversibility, DTT block and Cys-to-Ala mutagenesis; type: binding
# T1 construct: SD2 domain (aa 1,563–1,986)
# T1 sequence (Q9QXN0 1563-1986): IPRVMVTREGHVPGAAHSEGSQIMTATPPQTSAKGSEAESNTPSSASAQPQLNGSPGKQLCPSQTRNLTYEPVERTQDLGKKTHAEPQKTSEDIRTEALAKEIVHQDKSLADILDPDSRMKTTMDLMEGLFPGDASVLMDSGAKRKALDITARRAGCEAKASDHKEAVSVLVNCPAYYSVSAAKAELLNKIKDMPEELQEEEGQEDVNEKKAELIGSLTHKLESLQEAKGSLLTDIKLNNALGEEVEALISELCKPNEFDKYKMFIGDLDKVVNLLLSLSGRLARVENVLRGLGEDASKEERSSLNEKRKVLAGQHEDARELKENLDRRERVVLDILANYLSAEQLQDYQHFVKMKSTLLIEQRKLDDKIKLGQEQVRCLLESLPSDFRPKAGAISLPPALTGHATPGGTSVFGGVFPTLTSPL
# T1 sequence (P70336 698-957 partner): B1 chain
# [2] = biological target: T2, SD2 Cys254Ala Cys379Ala (ELISA) (mouse, UniProt Q9QXN0 1563-1986, Cys254Ala (SD2 numbering; Cys 1816 in full length mouse Shroom3) | Cys379Ala …); experiment: ELISA; 150 ng SD2 (wild type or mutant) immobilised on 384-well high-binding plates; CCG-17444 dilutions 30 min at 25°C, then 10 ng biotin-R2C1 (1.5 ng in Figure 4) 1 h at 25°C; buffer A (20 mM Tris HCl, 150 mM KCl, 0.05% Triton X-100, 0.5% BSA, pH 7.9); NeutrAvidin-HRP; also with 1 mM DTT; conditions: both partners purified
# T2 construct: Shroom3 SD2 domain, mouse, aa 1,563-1,986; also called double mutant SD2 Cys254Ala Cys379Ala; double Cys to Ala mutant
# T2 sequence (looked up): T1 sequence (Q9QXN0 1563-1986) with C254A, C379A
# [3] = biological target: T3, SD2 Cys254Ala (ELISA) (mouse, UniProt Q9QXN0 1563-1986, Cys254Ala (SD2 numbering; Cys 1816 in full length mouse Shroom3)); experiment: as above; conditions: both partners purified
# T3 construct: Shroom3 SD2 domain, mouse, aa 1,563-1,986; also called Cys254Ala mutant
# T3 sequence (looked up): T1 sequence (Q9QXN0 1563-1986) with C254A
# [4] = biological target: T4, SD2 Cys379Ala (ELISA) (mouse, UniProt Q9QXN0 1563-1986, Cys379Ala (SD2 numbering; mouse Shroom3 Cys1941)); experiment: as above; conditions: both partners purified
# T4 construct: Shroom3 SD2 domain, mouse, aa 1,563-1,986; SD2 Cys379 corresponds to mouse Shroom3 Cys1941 (AAF13269)
# T4 sequence (looked up): T1 sequence (Q9QXN0 1563-1986) with C379A
# [5] = biological target: T5, Shroom3 SD2 domain (aa 1,563–1,986), GST removed (mouse, UniProt Q9QXN0 1563-1986); experiment: ELISA; 0.5 µg SD2 immobilised on 96-well Immulon 2B high binding plates; Biotin-R2C1 0 to 1,778 nM (11 points) for 1 h at 25°C in TBS-1 (20 mM Tris HCl, 150 mM KCl, 0.5% Triton X-100, pH 7.9) with 0.5% BSA; NeutrAvidin-HRP; apparent Kd, hyperbolic fit; conditions: both partners purified
# T5 construct: Shroom3 SD2 domain, mouse, aa 1,563-1,986; Expressed as GST-SD2 from pGST-SD2; also called WT SD2; SD2 wild type; source: E. coli, purified (glutathione agarose; GST removed with TEV protease)
# T5 sequence (looked up): T1 sequence (Q9QXN0 1563-1986)
# [6] = biological target: T5, Shroom3 SD2 domain (aa 1,563–1,986), …; experiment: ELISA; competition: SD2 immobilised; 100 ng Biotin-R2C1 incubated 1 h at 25°C with unlabeled R2C1 (1–10 µg); NeutrAvidin-HRP; conditions: both partners purified
# [7] = biological target: T6, GST-SD2 wild type (mouse Shroom3 aa 1,563–1,986) (mouse, UniProt Q9QXN0 1563-1986); experiment: pull-down; wild type or mutant GST-SD2 (5 μg) bound to glutathione agarose resin, incubated overnight with His-Sumo-R2-C1 (12.5 μg); washed 3× Triton IP buffer, 1× PBS; SDS-PAGE, Coomassie G-250; conditions: both partners purified
# T6 construct: Shroom3 SD2 domain, mouse, aa 1,563-1,986; also called wild type GST-SD2; WT SD2
# T6 sequence (looked up): T1 sequence (Q9QXN0 1563-1986)
# [8] = biological target: T7, GST-SD2 Cys254Ala (mouse Shroom3 aa 1,563–1,986, Cys1816Ala) (mouse, UniProt Q9QXN0 1563-1986, Cys254Ala (SD2 numbering; Cys 1816 in full length mouse Shroom3)); experiment: as above; conditions: both partners purified
# T7 construct: Shroom3 SD2 domain, mouse, aa 1,563-1,986; Probably made in E. coli like the wild type; also called mutant GST-SD2; Cys254Ala SD2
# T7 sequence (looked up): T1 sequence (Q9QXN0 1563-1986) with C254A
molecule,measurement,setting,value
CC1(C)CC(=O)C2=C(C1)Nc1[nH]c(=S)[nH]c(=O)c1C2c1cccs1 (centres unmarked) [CCG-17444],IC50,[1],12.4 ± 2.3 µM
B1,binding result,[2],binds
same,binding result,[3],binds
same,binding result,[4],binds
same,Kd,[5],0.0049 µM
B2,binding result,[6],binds
same,binding result,[7],binds
same,binding result,[8],binds
